The text below walks through data of PMC3210020.

Read-outs that look alike come from different tables or passages of the source. Where only a bound is given, the exact number is not on record here.

As usually defined, the Ki is a dissociation constant, usually derived from enzyme kinetics or from competition with a known ligand. Read a low Ki as higher affinity. Broadly, the Kd is the constant that tells how readily two partners part at equilibrium. The koff is the rate constant with which the complex falls apart. Read a low koff as a long-lived complex. A word on the kon: it is the rate constant with which the complex forms. A lower kon goes with slower complex formation.

For test [1], the target named is integrin αIIbβ3 (human) (UniProt P05106). Put plainly: ELISA. (In general: ELISA stands for enzyme-linked immunosorbent assay.)
Test [2] shares this target. Put plainly: SPR. For orientation: SPR reads the build-up and loss of mass on a sensor chip optically.
Test [3] deals with integrin αIIbβ3 (Homo sapiens) (UniProt P08514). Put plainly: solid-phase binding. Particulars: cited from earlier work.
For test [4] the target is unchanged. The following applies: cited from earlier work.
Test [5] has the same target. Put plainly: SPR. Particulars: cited from earlier work.
Test [6] shares this target. The following applies: cited from earlier work. This is another data set of the same source.
Test [7] concerns the target integrin αIIbβ3 (human) (UniProt P05106). Put plainly: SPR. This is another data set of the same source.
The target is the same in test [8]. Put plainly: SPR. This is another data set of the same source.

For the molecule “biotinylated fibrinogen (from UniProt P02671-2 36-644; P02675 45-491; P02679-2 27-437) (natural protein)”, in the test with integrin αIIbβ3 (human) [1], the midpoint of the saturable binding profile was 2 nM.

eptifibatide (peptide) had a Ki with integrin αIIbβ3 (human) [2] of 0.4 nM.

With fibrinogen (from UniProt P02671), the equilibrium dissociation constant (Kd) in test [3] was 60 nM; in test [4], 50 nM; in test [5], 3 nM; in test [6] it was 165 nM.

In the test with integrin αIIbβ3 (human) [7], “human fibrinogen (plasma), (AαBβγ)2 (from UniProt P02671-2 36-644; P02675 45-491; P02679-2 27-437) (natural protein)” had a Kd of 4.42 nM, a koff of 8.41e-05 s⁻¹ and a kon of 19000 M⁻¹ s⁻¹. In the test with integrin αIIbβ3 (human) [2], this molecule displayed a Kd of 3.2 nM, a dH of -11.7 kcal/mol, a fold slower off rate at 15 °C than at 37 °C of 7 fold and a fold slower on rate at 15 °C than at 37 °C of 2 fold. In the test with integrin αIIbβ3 (human) [2], this molecule showed a fold tighter binding at 15 °C than at 37 °C of 4 fold, a koff of 7.01e-05 s⁻¹ and a kon of 21900 M⁻¹ s⁻¹.

For the molecule “normal recombinant fibrinogen (from UniProt P02671-2 36-644; P02675 45-491; P02679-2 27-437) (natural protein)”, the kon with integrin αIIbβ3 (human) [2] came out at 21900 M⁻¹ s⁻¹.

B1: synthetic γ-module peptide … (peptide)
peptide: HHLGGAKQAGDV
In the case of B1, in the test with integrin αIIbβ3 (human) [8], the percent reduction of the fibrinogen (100 nM) binding signal at 3 µM peptide was below 10%.
